Measured values from the supplement of paper PMC9732359.
± gives the uncertainty stated by the source.

Assay: protein stability index of a GFP-peptide fusion (yeast GPS) (PSI 1-4); higher = more stable; sorted into four equal gates, so the index is relative within each strain
Outline: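 Peptides tiling yeast proteins in 17-residue segments were fused downstream of GFP, with Cherry expressed from the same plasmid. As a pooled library in yeast, mid-log cultures grown in leucine-free medium were sorted into four equal gates by GFP/Cherry fluorescence ratio. Gate plasmids were PCR-amplified and Illumina-sequenced, and barcodes linked reads to strains. Each peptide received a protein stability index equal to the sum of each gate's read frequency times its gate number.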

Sequence | protein stability index (doa10∆) | protein stability index (pdr5∆) | protein stability index (san1∆) | protein stability index (ubr1∆)
DKKVLVKVQPEGKYIVD [RPT6] | 3.23 ± 0.081 | 3.28 ± 0.088 | 3.23 ± 0.036 | 2.96 ± 0.062
YDKLPAGQNATVAVMSY [RET1] | 1.17 ± 0.046 | 1.31 ± 0.046 | 1.33 ± 0.13 | 1.18 ± 0.048
RFAPDNQVTDSSQLNKL [SIR3] | 2.9 ± 0.096 | 3.1 ± 0.11 | 2.98 ± 0.12 | 3.04 ± 0.14
QQTAQTQLEQQRQLLVQ [SNF5] | 3.12 ± 0.12 | 3.15 ± 0.14 |  | 2.49 ± 0.072
TERHIQVGDGLEILIVT [PRE7] | 2.05 ± 0.067 | 1.97 ± 0.07 | 2.63 ± 0.11 | 3.12 ± 0.065
RKIGISIDDHPYNLNLF [RPC31] | 1.75 ± 0.043 | 2.04 ± 0.05 | 1.71 ± 0.098 | 1.9 ± 0.044
VQFGLNEETFTVPELEI [ARP9] | 3.17 ± 0.076 | 3.02 ± 0.096 | 2.78 ± 0.11 | 3.19 ± 0.082
EDFRIQFKTTIKDTAND [UBP6] | 2.49 ± 0.067 | 2.47 ± 0.07 | 2.16 ± 0.063 | 2.43 ± 0.054
LLGARHYTPAVDLWSVG [SSN3] | 1.29 ± 0.19 | 1.15 ± 0.19 |  | 
SPNRLRVRTDDSVLLNR [YML031W/NDC1] | 2.78 ± 0.22 | 3.25 ± 0.21 | 2.99 ± 0.14 | 
MPVAPTMEVKSFPILDQ [YMR129W/POM152] | 1.36 ± 0.1 | 1.29 ± 0.11 | 1.2 ± 0.2 | 1.22 ± 0.093
FNYSGKDMLYSGITGEC [RET1] | 2.48 ± 0.075 | 2.46 ± 0.075 | 2.19 ± 0.12 | 2.61 ± 0.06
NIKHKHTSIRETLENGE [SMC2] | 1.46 ± 0.12 | 1.74 ± 0.21 | 1.54 ± 0.2 | 1.68 ± 0.24
INHEDGFIETTELLNIY [RPN3] | 2.97 ± 0.079 | 2.93 ± 0.1 | 3.09 ± 0.072 | 3.19 ± 0.066
EKKPASKAPAEKKPAAK [HTB1] | 3.13 ± 0.08 | 3.19 ± 0.063 | 3 ± 0.059 | 3.11 ± 0.054
MPFNDQGIVPDIIMNPH [RET1] | 2.71 ± 0.075 | 2.92 ± 0.059 | 2.87 ± 0.052 | 3.09 ± 0.042
QERNKIHQYLFQEGVVV [RPS10B] | 1.27 ± 0.06 | 1.39 ± 0.044 | 1.45 ± 0.09 | 1.45 ± 0.037
AQNQGGQVSMSQFNGSG [PGD1] | 3.42 ± 0.12 | 3.29 ± 0.12 | 2.93 ± 0.081 | 3.23 ± 0.076
LMEKNRIRKLTGQNFLT [REC8] | 1.36 ± 0.044 | 1.37 ± 0.038 | 1.65 ± 0.077 | 1.33 ± 0.041
GRGRGRGRPPKARNGLD [SNF2] | 3.13 ± 0.084 | 3.17 ± 0.075 | 3.29 ± 0.047 | 3.33 ± 0.057
